The chains are these.
B2: LRRC8A (leucine-rich repeat-containing protein 8, family member A), human (other, UniProt Q8IWT6 1-810, looked up)
chain: MIPVTELRYFADTQPAYRILKPWWDVFTDYISIVMLMIAVFGGTLQVTQDKMICLPCKWVTKDSCNDSFRGWAAPGPEPTYPNSTILPTPDTGPTGIKYDLDRHQYNYVDAVCYENRLHWFAKYFPYLVLLHTLIFLACSNFWFKFPRTSSKLEHFVSILLKCFDSPWTTRALSETVVEESDPKPAFSKMNGSMDKKSSTVSEDVEATVPMLQRTKSRIEQGIVDRSETGVLDKKEGEQAKALFEKVKKFRTHVEEGDIVYRLYMRQTIIKVIKFILIICYTVYYVHNIKFDVDCTVDIESLTGYRTYRCAHPLATLFKILASFYISLVIFYGLICMYTLWWMLRRSLKKYSFESIREESSYSDIPDVKNDFAFMLHLIDQYDPLYSKRFAVFLSEVSENKLRQLNLNNEWTLDKLRQRLTKNAQDKLELHLFMLSGIPDTVFDLVELEVLKLELIPDVTIPPSIAQLTGLKELWLYHTAAKIEAPALAFLRENLRALHIKFTDIKEIPLWIYSLKTLEELHLTGNLSAENNRYIVIDGLRELKRLKVLRLKSNLSKLPQVVTDVGVHLQKLSINNEGTKLIVLNSLKKMANLTELELIRCDLERIPHSIFSLHNLQEIDLKDNNLKTIEEIISFQHLHRLTCLKLWYNHIAYIPIQIGNLTNLERLYLNRNKIEKIPTQLFYCRKLRYLDLSHNNLTFLPADIGLLQNLQNLAITANRIETLPPELFQCRKLRALHLGNNVLQSLPSRVGELTNLTQIELRGNRLECLPVELGECPLLKRSGLVVEEDLFNTLPPEVKERLWRADKEQA
notes: whole, on cells; Used for endogenous LRRC8A and for transfected LRRC8A; Co-IPs were done on detergent lysates; also called endogenous LRRC8A; native LRRC8A

Assay [1] has as its target B2. Briefly: immunoprecipitation of endogenous proteins from WT HEK lysate.
The target of assay [2] is T1, KCC1 plasma membrane ion transporter, endogenous in HEK cells (UniProt Q9UP95 1-1085, limits assumed).
T1 construct: whole, on cells; also called SLC12A4
T1 sequence (looked up): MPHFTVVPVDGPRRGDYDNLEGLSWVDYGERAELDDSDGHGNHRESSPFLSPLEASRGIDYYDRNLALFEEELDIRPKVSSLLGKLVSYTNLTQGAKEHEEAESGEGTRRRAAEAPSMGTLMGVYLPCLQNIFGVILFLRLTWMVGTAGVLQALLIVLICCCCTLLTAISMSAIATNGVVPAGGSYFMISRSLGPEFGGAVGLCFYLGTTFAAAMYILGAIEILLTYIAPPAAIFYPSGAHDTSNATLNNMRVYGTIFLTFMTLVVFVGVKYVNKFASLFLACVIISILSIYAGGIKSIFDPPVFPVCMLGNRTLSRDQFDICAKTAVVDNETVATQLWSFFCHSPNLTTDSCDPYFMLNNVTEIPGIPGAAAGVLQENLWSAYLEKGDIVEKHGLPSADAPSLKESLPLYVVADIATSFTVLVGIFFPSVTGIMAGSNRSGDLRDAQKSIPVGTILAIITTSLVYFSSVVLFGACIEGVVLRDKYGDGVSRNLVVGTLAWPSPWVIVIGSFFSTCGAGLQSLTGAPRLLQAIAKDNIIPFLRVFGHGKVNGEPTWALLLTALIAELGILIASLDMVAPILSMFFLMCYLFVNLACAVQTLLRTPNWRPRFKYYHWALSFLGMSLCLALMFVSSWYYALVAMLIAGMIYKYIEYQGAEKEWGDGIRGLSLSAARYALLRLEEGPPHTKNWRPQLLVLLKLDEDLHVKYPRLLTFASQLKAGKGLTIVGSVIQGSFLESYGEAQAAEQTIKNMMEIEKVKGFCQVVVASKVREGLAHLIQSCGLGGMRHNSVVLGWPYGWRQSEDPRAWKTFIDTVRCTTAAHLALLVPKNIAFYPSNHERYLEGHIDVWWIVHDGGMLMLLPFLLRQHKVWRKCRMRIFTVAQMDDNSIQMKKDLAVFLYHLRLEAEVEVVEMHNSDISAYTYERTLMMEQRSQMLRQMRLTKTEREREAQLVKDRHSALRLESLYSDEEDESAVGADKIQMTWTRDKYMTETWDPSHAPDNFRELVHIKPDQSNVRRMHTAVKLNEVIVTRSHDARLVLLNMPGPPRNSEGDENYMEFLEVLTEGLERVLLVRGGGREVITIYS
Briefly: immunoprecipitation with LRRC8A antibody from WT HEK cell lysate, Western blot. Background: A western blot detects proteins with antibodies after separation by electrophoresis.

Assay [3] has as its target GFP-ClC-1 (human ClC-1 Cl- channel in pEGFP-C1) (human, UniProt P42212 1-238 = GFP; P35523 1-988). Briefly: co-immunoprecipitation from double-transfected HEK cells, Western blot. From the text: The changed banding pattern of the mutant might result from altered posttranslational modifications. n.t., non-transfected. (C) Immunofluorescence using HA antibody of non-permeabilized versus permeabilized HeLa cells transfected with GFPLRRC8A carrying an HA-tag as indicated. Overlays of GFP (green) and HA (red) labeling. Insets show exclusively HA-staining. Scale bar, 20 μm. (D) LRRC8A co-precipitated epitopetagged LRRC8B through LRRC8E in double-transfected HEK cells. LRRC8B and LRRC8D were poorly expressible. […] (F) Epitope-tagged LRRC8B through LRRC8E co-precipitated LRRC8A. (G) Heteromerization of endogenous LRRC8 proteins. LRRC8A co-precipitated LRRC8E (for which a suitable antibody was available) in immunoprecipitation with an LRRC8A antibody from wild-type (WT) HEK cell lysate, but not from the LRRC8A−/− knockout (KO, clone 3E7). […] Lysate equivalent to 25% of input was loaded as reference (input).
For co-immunoprecipitation, HEK cells were co-transfected with plasmids (6 μg total) encoding myc-tagged or untagged LRRC8A and N-terminal fusion constructs of LRRC8A-E or ClC-1 (or soluble GFP) on 10 cm dishes using PEI as described above. […] After four washes with 500 μl IP buffer, precipitates were eluted in 40 μl Lämmli sample buffer, separated by SDS-PAGE and analyzed by Western blot as indicated. […]

Assay [4] concerns the target LRRC8D-GFP (human LRRC8D fused C-terminally to GFP) (human, UniProt Q7L1W4 1-858; P42212 1-238 = GFP). Briefly: cell-based or functional assay.
The target in assay [5] is LRRC8E-GFP (human LRRC8E fused C-terminally to GFP) (human, UniProt Q6NSJ5 1-796; P42212 1-238 = GFP). Put plainly: cell-based or functional assay.
The target in assay [6] is LRRC8C-GFP (human LRRC8C fused C-terminally to GFP) (human, UniProt Q8TDW0 1-803; P42212 1-238 = GFP). Briefly: cell-based or functional assay.

B1: LRRC8E, endogenous (native) human protein (other, UniProt Q6NSJ5 1-796, looked up)
chain: MIPVAEFKQFTEQQPAFKVLKPWWDVLAEYLTVAMLMIGVFGCTLQVTQDKIICLPNHELQENLSEAPCQQLLPRGIPEQIGALQEVKGLKNNLDLQQYSFINQLCYETALHWYAKYFPYLVVIHTLIFMVCTSFWFKFPGTSSKIEHFISILGKCFDSPWTTRALSEVSGENQKGPAATERAAATIVAMAGTGPGKAGEGEKEKVLAEPEKVVTEPPVVTLLDKKEGEQAKALFEKVKKFRMHVEEGDILYTMYIRQTVLKVCKFLAILVYNLVYVEKISFLVACRVETSEVTGYASFCCNHTKAHLFSKLAFCYISFVCIYGLTCIYTLYWLFHRPLKEYSFRSVREETGMGDIPDVKNDFAFMLHLIDQYDSLYSKRFAVFLSEVSESRLKQLNLNHEWTPEKLRQKLQRNAAGRLELALCMLPGLPDTVFELSEVESLRLEAICDITFPPGLSQLVHLQELSLLHSPARLPFSLQVFLRDHLKVMRVKCEELREVPLWVFGLRGLEELHLEGLFPQELARAATLESLRELKQLKVLSLRSNAGKVPASVTDVAGHLQRLSLHNDGARLVALNSLKKLAALRELELVACGLERIPHAVFSLGALQELDLKDNHLRSIEEILSFQHCRKLVTLRLWHNQIAYVPEHVRKLRSLEQLYLSYNKLETLPSQLGLCSGLRLLDVSHNGLHSLPPEVGLLQNLQHLALSYNALEALPEELFFCRKLRTLLLGDNQLSQLSPHVGALRALSRLELKGNRLEALPEELGNCGGLKKAGLLVEDTLYQGLPAEVRDKMEEE
notes: whole, on cells; Untagged endogenous protein in cell lysates; also called native LRRC8E
With B1, the binding result in assay [1] is listed as “binds”.

With B2, the binding result in assay [2] and in assay [3] was “no binding” each time. Besides, the “V1/2 from Boltzmann fits (voltage-dependent inactivation of ICl(swell))” value is 72.4 mV in assay [4], 45.9 mV in assay [5] and 116 mV in assay [6].

Values taken from patent US20150253303A1 (FORSCHUNGSVERBUND BERLIN E V, published 2015).
